This passage reports Kd results from the Immune Epitope Database (IEDB).

Bounds are passed on as bounds.

Targets include HLA-A*33:01; HLA-A*31:01; HLA-A*11:01; HLA-A*03:01; HLA-A*68:01.
Common to all, as to assay: IEDB peptide-MHC binding, purified MHC/competitive/radioactivity; filed as Kd, often an IC50 or EC50 that approximates it; ≥ and ≤ were set here for values at or beyond the usual limits of such assays
The mark [1] stands for this setting: source organism: Vaccinia virus WR.
Where [2] appears, read: source organism: Mammarenavirus brazilense.
The mark [3] stands for this setting: source organism: Mammarenavirus juninense.

For FVNEKYCIIK, the dissociation constant Kd was 3.92 µM with HLA-A*33:01 (setting [1]); 6.15 µM with HLA-A*31:01 (setting [1]); 0.226 µM with HLA-A*11:01 (setting [1]); no less than 48.6 µM with HLA-A*03:01 (setting [1]); 0.275 µM with HLA-A*68:01 (setting [1]).
In the same order, the values of NSKYSYELY are no less than 46.7 µM, no less than 51.1 µM, 10.4 µM, no less than 33 µM and 0.0102 µM.
Turning to YTYDRVDIY, the Kd with HLA-A*33:01 (setting [1]) was no less than 36.6 µM; with HLA-A*31:01 (setting [1]), 9.37 µM; in the assay with HLA-A*11:01 (setting [1]) it was 0.000341 µM; with HLA-A*03:01 (setting [1]), 0.741 µM; with HLA-A*68:01 (setting [1]), 0.00191 µM.
In the same order, the values of FLRSIAMLK are 0.611 µM, 0.153 µM, 0.213 µM, 0.00204 µM and 0.107 µM.
In the same order, the values of RASTTENAAY are no less than 70 µM, 2.09 µM, 0.564 µM, 13.4 µM and 4.63 µM.
For the sequence KAGQNIRLSH, the Kd in the assay with HLA-A*33:01 (setting [2]) is no less than 70 µM; with HLA-A*31:01 (setting [2]), 5.26 µM; with HLA-A*11:01 (setting [2]), 12.8 µM; in the assay with HLA-A*03:01 (setting [2]), 1.68 µM; in the assay with HLA-A*68:01 (setting [2]), no less than 70.1 µM.
Consider MLFTSTNDK, for which the Kd with HLA-A*33:01 (setting [1]) was no less than 77.7 µM; with HLA-A*31:01 (setting [1]) it was 18.4 µM; with HLA-A*11:01 (setting [1]), 0.02 µM; with HLA-A*03:01 (setting [1]) it was 0.00547 µM; with HLA-A*68:01 (setting [1]), 0.0262 µM.
With IILARNEEGR, the dissociation constant (Kd) was 0.344 µM with HLA-A*33:01 (setting [1]); 0.0712 µM in the assay with HLA-A*31:01 (setting [1]); no less than 24.3 µM in the assay with HLA-A*11:01 (setting [1]); 9.52 µM with HLA-A*03:01 (setting [1]); 1.16 µM in the assay with HLA-A*68:01 (setting [1]).
With KLVKSLVDK, the Kd with HLA-A*33:01 (setting [1]) was no less than 77.7 µM; with HLA-A*31:01 (setting [1]) it was no less than 41.3 µM; in the assay with HLA-A*11:01 (setting [1]), 0.0734 µM; with HLA-A*03:01 (setting [1]) it was 0.0345 µM; with HLA-A*68:01 (setting [1]) it was no less than 77.7 µM.
In the case of ILKINSVKY, the Kd with HLA-A*33:01 (setting [1]) was 12.9 µM; with HLA-A*31:01 (setting [1]) it was 1.31 µM; with HLA-A*11:01 (setting [1]), 16.2 µM; with HLA-A*03:01 (setting [1]), 0.831 µM; with HLA-A*68:01 (setting [1]) it was 1.82 µM.
On to DIDILQTNSR, for which the Kd in the assay with HLA-A*33:01 (setting [1]) was 0.314 µM; with HLA-A*31:01 (setting [1]) it was 0.711 µM; in the assay with HLA-A*11:01 (setting [1]), no less than 27.3 µM; with HLA-A*03:01 (setting [1]), 0.0638 µM; with HLA-A*68:01 (setting [1]), 0.839 µM.
Take ITGNNIILSK: the equilibrium dissociation constant (Kd) with HLA-A*33:01 (setting [1]) was determined as 2 µM; with HLA-A*31:01 (setting [1]), 2.46 µM; in the assay with HLA-A*11:01 (setting [1]), 0.000713 µM; with HLA-A*03:01 (setting [1]) it was 0.00351 µM; with HLA-A*68:01 (setting [1]), 0.00762 µM.
In the same order, the values of GVTSSGAIYK are no less than 10 µM, 1.35 µM, 0.0459 µM, 0.181 µM and 0.0813 µM.
Turning to DVDTSASEIK, the Kd is 18.8 µM in the assay with HLA-A*33:01 (setting [1]); no less than 27.1 µM in the assay with HLA-A*31:01 (setting [1]); 2.63 µM with HLA-A*11:01 (setting [1]); 4.43 µM in the assay with HLA-A*03:01 (setting [1]); 0.135 µM with HLA-A*68:01 (setting [1]).
Taken in the same sequence, the figures for SSSVDVDIY were no less than 72.7 µM, 2.73 µM, no less than 43.7 µM, no less than 65.3 µM and 2.95 µM.
As for RSKQKIGDLR, the Kd in the assay with HLA-A*33:01 (setting [1]) was 12.7 µM; in the assay with HLA-A*31:01 (setting [1]) it was 0.0483 µM; with HLA-A*11:01 (setting [1]), 14 µM; in the assay with HLA-A*03:01 (setting [1]) it was 3.83 µM; with HLA-A*68:01 (setting [1]), 1.3 µM.
As to ELYDTSPTKR, the Kd with HLA-A*33:01 (setting [1]) is 0.142 µM; in the assay with HLA-A*31:01 (setting [1]), 1.85 µM; with HLA-A*11:01 (setting [1]) it was 10.5 µM; with HLA-A*03:01 (setting [1]), 0.756 µM; with HLA-A*68:01 (setting [1]) it was 0.00152 µM.
Take YAKKFKTGMH: the dissociation constant (Kd) in the assay with HLA-A*33:01 (setting [3]) is no less than 29.2 µM; in the assay with HLA-A*31:01 (setting [3]) it was no less than 28.2 µM; in the assay with HLA-A*11:01 (setting [3]) it was no less than 69.7 µM; with HLA-A*03:01 (setting [3]), no less than 70 µM; in the assay with HLA-A*68:01 (setting [3]) it was no less than 70.1 µM.

Broadly, the Kd is a measure of binding affinity in units of concentration.
